Data on one molecule can be found in patent US20090035266A1.

The target in the experiment is HLA-A2 molecules on T2 cells (human). In words: T2 cell HLA-A2 upregulation assay, flow cytometry, peptide 25 µg/ml; negative control. The following applies: remark: other sources report otherwise. On the technique in general: Flow cytometry measures light scatter and fluorescence of single cells or particles in a stream.

In turn, HLFGYSWYK [CAP-7 peptide] gave a T2 binding (MFI) of 260 MFI.
